Test results reported in the supplement of paper PMC10567573.
± gives the standard deviation.

Experiment: protein stability index of a GFP-peptide fusion (GPS, HEK-293T) (PSI 1-6); higher = more stable
[1] = treatment: DMSO, c terminus: a fixed tail appended
[2] = treatment: MLN4924 1 uM, 8 h, c terminus: a fixed tail appended
[3] = treatment: DMSO, c terminus: native
[4] = treatment: MLN4924 1 uM, 8 h, c terminus: native
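Note: 24-mer peptide tiles fused after GFP, lentivirally expressed, FACS-sorted into six equal bins by GFP/DsRed ratio, decoded by Illumina sequencing, PSI is the read-weighted mean bin number.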

Row | Sequence | protein stability index [1] | protein stability index [2] | protein stability index [3] | protein stability index [4]
1 | AAAFSQCEEWSFFHAYYYCFITLT [KCNK9] | 3.33 ± 0.51 | 3.23 ± 0.49 | – | –
2 | AAANGGHVKIVKLLLAHKADVNAQ [ANKRD17] | 2.51 ± 0.31 | 2.68 ± 0.18 | – | –
3 | AACIAYIRLTQYIDGQGRPRTSQS [CAMK2B] | 2.24 ± 0.54 | 2.48 ± 0.23 | – | –
4 | AAGQRSRPSTYYELLGVHPGASTE [DNAJC4] | 3.58 ± 0.32 | 3.71 ± 0.23 | – | –
5 | AALGSRGSCSTEVEKETQEKMTIL [ATP6V1G1] | 2.52 ± 0.47 | 2.52 ± 0.55 | – | –
6 | AALKQAIKDKEAPLHVAQTRLYLR [TEKT4] | 3.06 ± 0.15 | 3.07 ± 0.18 | – | –
7 | ACCGGFLEVADFLIKAGADIELGC [ANKRD17] | – | 3.05 ± 1.1 | – | –
8 | ACGLGGGYGGGFSSSSSFGSGFGG [KRT16] | 2.17 ± 0.27 | 2.29 ± 0.25 | – | –
9 | ADAVNLTIPASLDLSPLLGFWQLP [PLAGL1] | 2.28 ± 0.27 | 2.28 ± 0.23 | – | –
10 | ADGIEVSYNACGVLSHIMFDGPEA [ZER1] | 2.93 ± 0.28 | 2.94 ± 0.27 | – | –
11 | ADSGNFKRCINLWKYALDMQQSNL [FEM1C] | 2.15 ± 0.37 | 2.21 ± 0.37 | – | –
12 | AEDFSTMDEISEKLKKGICEALED [MATN2] | 5.22 ± 0.32 | 5 ± 0.33 | – | –
13 | AEFQLVRDVVLCSLLNFLPEGVNK [TENT5C] | 2.37 ± 0.7 | 3.07 ± 0.85 | – | –
14 | AEGIGSTVFRAILDYYKTGIIRCP [BTBD10] | 2.12 ± 0.42 | 1.99 ± 0.2 | – | –
15 | AETAGAIMAFFLCLGLALGAVFSF [SLC29A1] | 3.35 ± 0.66 | 3.03 ± 0.24 | – | –
16 | AFHRKSHSLDLNISEKLTLLPTLY [RNF180] | 2.34 ± 0.39 | 2.1 ± 0.34 | – | –
17 | AGINTHSNEFKESALTLACYKGHL [ANKRD17] | 2.76 ± 0.19 | 2.86 ± 0.47 | – | –
18 | AGISRSPTICMAYLMKTKQFRLKE [DUSP5] | 2.21 ± 0.3 | 2.13 ± 0.24 | – | –
19 | AGSSHTPSSQSSSGGGRDSSSSIL [ELOA2] | 4.82 ± 0.26 | 4.78 ± 0.14 | – | –
20 | AIFIMSLNKRHSSGDGNSKLKSE [MFSD9] | – | – | 2.64 ± 0.27 | 2.22 ± 0.15
21 | AIHSSDEDEDEDDEEDFEDDDEWE [WASL] | 4.48 ± 0.26 | 4.49 ± 0.27 | – | –
22 | ALCMLAQSSPSFAEKCLDFLVDMF [INTS4] | 1.86 ± 0.1 | 2.35 ± 0.064 | – | –
23 | ALGAMWKLHKSQLSQALNGLSDRA [TRIM9] | 2.21 ± 0.29 | 2.34 ± 0.35 | – | –

Row | Sequence | protein stability index [1] | protein stability index [2] | protein stability index [3] | protein stability index [4]
24 | ALMHVMQKRSRAIHSSDEGEDQAG [WAS] | 4.25 ± 0.27 | 4.49 ± 0.13 | – | –
25 | ALREVYAHAVLGQHSHVVRYFSAW [WEE1] | 2.36 ± 0.34 | 2.03 ± 0.3 | – | –
26 | ALVYSITAQSTFNDLQDLREQILR [RAP1B] | 2.27 ± 0.33 | 2.42 ± 0.4 | – | –
27 | AMALTSSMNWGINLLISLTFLTVT [SLC2A12] | 3.14 ± 0.36 | 3.32 ± 0.33 | – | –
28 | APRFSFNDPSGSEEADFLSAETGS [IRX6] | 5.36 ± 0.14 | 5.33 ± 0.24 | – | –
29 | APSLRRHVLIHNTLQQLQAALRLA [SERTAD3] | 2.21 ± 0.33 | 2.29 ± 0.13 | – | –
30 | AQALGYYYVLEPRVVDGTPCSPDS [ADAMTS4] | 2.74 ± 0.52 | 2.7 ± 0.38 | – | –
31 | AQDLTEAEGWHFFCFQGEATRKLA [SAT2] | 2.94 ± 0.36 | 3.32 ± 0.46 | – | –
32 | AQILPSRVQGGCYRFDSSSCSSED [DRICH1] | 4.05 ± 0.26 | 3.92 ± 0.35 | – | –
33 | AQKISKGADPKSVVCAFFKQGQCT [ZC3H15] | 3.32 ± 0.34 | 3.31 ± 0.26 | – | –
34 | AQVLLAMHANVEDRGIKGDITPLM [ANKRD17] | 2.99 ± 0.093 | 3.04 ± 0.13 | – | –
35 | ARGEDRAGPQSPSPGAPPAAKPAR [TSPAN10] | 5.1 ± 0.56 | 5.65 ± 0.097 | – | –
36 | ARGLDDAAARGGQCPGLGPAPTPT [ZBED3] | 4.65 ± 0.14 | 4.7 ± 0.25 | – | –
37 | ARIQTLEPDNWMKEVMLFGHGTRK [RSAD1] | 3 ± 0.5 | 3.33 ± 0.35 | – | –
38 | ARKQDMNTKRAIHTLAVMNDRLYA [KLHL14] | 2.55 ± 0.24 | 2.93 ± 0.36 | – | –
39 | ARPSETFARFCKSQESALGNTVPA [DNAAF3] | 3.12 ± 0.26 | 2.94 ± 0.26 | – | –
40 | ARWRRLRLQQLRRLRGLLRVLRGR [FBXO33] | 3.52 ± 0.39 | 3.95 ± 0.65 | – | –
41 | ASGSTQRQPPPPAPQHPQPGSQAL [FBXO28] | 5.14 ± 0.27 | 5.12 ± 0.089 | – | –
42 | ASNWSTTGFGQGQGYTINVPWNQV [HDAC6] | 2.14 ± 0.47 | 2.22 ± 0.43 | – | –
43 | ASSQHSEGSRSSGSNRSGSDRRKE [DVL3] | 5.37 ± 0.16 | 5.52 ± 0.16 | – | –
44 | ASWMYQLQHGDQLSICFTCFKAAF [TEX19] | 2.59 ± 0.42 | 2.51 ± 0.53 | – | –
45 | ATDGARPQALPEPMQESKAEGNNQ [CHGA] | 5.67 ± 0.18 | 5.76 ± 0.11 | – | –
46 | ATLFFNPQESAILQLFHQDGTFSP [CLCN6] | 2.25 ± 0.42 | 2.29 ± 0.074 | – | –

Row | Sequence | protein stability index [1] | protein stability index [2] | protein stability index [3] | protein stability index [4]
47 | ATSATSHTRSLNSIIHQMEKFSSS [FBF1] | 3.34 ± 0.28 | 3.59 ± 0.39 | – | –
48 | ATSGPPGIQPGQEPPVTMIFMGYQ [PALM] | 2.47 ± 0.24 | 2.38 ± 0.14 | – | –
49 | AVLGGFLYAVGGQDGVSCLNIVER [KLHL20] | 2.16 ± 0.45 | 2.55 ± 0.47 | – | –
50 | AVLTTHHHWDHARGNPELARLRPG [HAGHL] | 3.28 ± 0.17 | 3.4 ± 0.34 | – | –
51 | AVNAHQWLDNPERWNKVKMVVSRE [SEPHS2] | 3.02 ± 0.37 | 2.67 ± 0.3 | – | –
52 | AVVKGIQSSGKVMYFSSLFPYVVL [SLC6A17] | 3.09 ± 0.49 | 2.51 ± 0.028 | – | –
53 | AWLEGRIRQEFDKLREFLRVEEQA [TRIM35] | 2.81 ± 0.4 | 2.94 ± 0.5 | – | –
54 | AWTLINLSFAAKQRELHSHVTNAM [DHCR7] | 3.12 ± 0.34 | 3.05 ± 0.24 | – | –
55 | AYAHPQQKVAVYRALQAALAESGG [TRADD] | 2.43 ± 0.51 | 2.65 ± 0.34 | – | –
56 | AYDEALAELHAHGPAAFVDYFERN [ZSWIM9] | 3.73 ± 0.24 | 3.74 ± 0.34 | – | –
57 | CADVPLLTPSSKEMMSQALKATFS [ETS1] | 2.79 ± 0.2 | 2.66 ± 0.3 | – | –
58 | CAGSTALQEPGEPQGPPASPSCPE [PXN] | 5.15 ± 0.27 | 5.48 ± 0.18 | – | –
59 | CATDTKNVQFVFDAVTDVIIKNNL [GNAI1] | 2 ± 0.28 | 2.43 ± 0.22 | – | –
60 | CFLLTAMAYDQFLAICRPLTYSTR [OR3A1] | 2.89 ± 0.35 | 2.89 ± 0.69 | – | –
61 | CGKSFTQSSGLIRHQRIHTGERPY [ZSCAN9] | 2.14 ± 0.034 | 2.25 ± 0.21 | – | –
62 | CGRYINGHMLQHHGNSGHPLVLSY [HDAC6] | 2.51 ± 0.29 | 2.65 ± 0.77 | – | –
63 | CGSFYREPIILPCSHNLCQACARN [TRIM9] | 2.22 ± 0.25 | 2.19 ± 0.33 | – | –
64 | CGYFQVVNYTQGLWEKVMPSRYAA [SLC19A2] | 2.7 ± 0.79 | 2.46 ± 0.41 | – | –
65 | CIELYFDEKYSIEPSWECKFDHIE [NETO1] | 2.13 ± 0.42 | 2.24 ± 0.25 | – | –
66 | CIGQRRFHTMDELVEHYKKAPIFT [NCK2] | 2.54 ± 0.2 | 2.65 ± 0.38 | – | –
67 | CKKGDPKHGKRKRGRPRKLSKEYW [ELF3] | 3.56 ± 0.13 | 3.85 ± 0.22 | – | –
68 | CKNSNTVYCKLESCPSRGQGKPS [SPRY1] | – | – | 3.789 ± 0.011 | 3.97 ± 0.22
69 | CKRMDLVCQRMLNQGFLKVERYHN [FBXO28] | 2.38 ± 0.29 | 2.1 ± 0.16 | – | –

Row | Sequence | protein stability index [1] | protein stability index [2] | protein stability index [3] | protein stability index [4]
70 | CKSGYHPTKSHSFRAMCQNGKLVY [CFHR2] | 2.16 ± 0.18 | 2.38 ± 0.43 | – | –
71 | CLELVSCFVLFSLTHTHTHTPNHR [ANKRD44] | 2.7 ± 0.081 | 3.55 ± 0.097 | – | –
72 | CLFSERDAAGAPRDASDPLAGAAL [SMAD6] | 4 ± 0.46 | 4.33 ± 0.2 | – | –
73 | CLLGLGSLVLILSLSYTVLIVGRI [SLC2A12] | 3.06 ± 0.48 | 3.26 ± 0.38 | – | –
74 | CLTLATAVVQLYLALPPGAEHWTK [WAS] | 2.85 ± 0.87 | 2.77 ± 0.28 | – | –
75 | CPWHYLHLSGSHNTLAPTCFKAKL [RSPH3] | 2.35 ± 0.23 | 2.59 ± 0.13 | – | –
76 | CQDSSGEVSCQCQLHPPRWYSRLQ | 2.38 ± 0.28 | 2.81 ± 0.23 | – | –
77 | CSSPGVQACSLPASCCIDPREDGA [TSPAN10] | 4.687 ± 0.023 | 4.6 ± 0.1 | – | –
78 | CSVRPDASVSSHRFFGPNAEISQP [TCF25] | 3.57 ± 0.32 | 3.73 ± 0.092 | – | –
79 | CYNCEEEAMYHCCWNTSYCSIKCQ [ZMYND11] | 2.61 ± 0.52 | 2.79 ± 0.47 | – | –
80 | DAKARKQEIIKTTEQLIEAVNNGD [CAMK2B] | 5.27 ± 0.29 | 5.26 ± 0.19 | – | –
81 | DALNAYVCKGLPQHEEICLGLFTL [INTS3] | 2.81 ± 0.64 | 2.67 ± 0.74 | – | –
82 | DANLDECIPATVRSSFANQGEICL [ALDH8A1] | 4.08 ± 0.35 | 4.19 ± 0.41 | – | –
83 | DAPLHSVGYTTLVGNNHESWGWDL [SPSB1] | 2.9 ± 0.16 | 2.85 ± 0.25 | – | –
84 | DATQEYKEKLQKCLEPLEQKLQEI [TRIM39] | 4.8 ± 0.055 | 5.02 ± 0.18 | – | –
85 | DCAGSPQKPLCASDGRTFLSRCEF [SMOC2] | 3.05 ± 0.48 | 3.27 ± 0.36 | – | –
86 | DCLQFYVNSTLKELRRLFLVQDLV [RTN1] | 2.99 ± 0.61 | 2.81 ± 0.76 | – | –
87 | DDVIVQGDIQELYDTTLALGHAAA [GLT8D2] | 4.47 ± 0.39 | 4.42 ± 0.088 | – | –
88 | DFALHYCLHHVHYLATEYLETHFR [GAN] | 3.08 ± 0.24 | 3.11 ± 0.23 | – | –
89 | DFALINKLDIQCDLKTLSDDIKES [ATE1] | 4.15 ± 0.14 | 4.18 ± 0.39 | – | –
